Data on one molecule can be found in patent US20160297851A1 (Scripps Research, published 2016).

Where two headings read alike, the source gives them in different places.

Assay [1] concerns the target T1, E. coli MG1655 SPase (LepB), wild type, in the bacteria (Escherichia coli, UniProt P00803 1-324). Put plainly: cell-based or functional assay.
Assay [2] addresses E. coli SPase (LepB) P84S, strain PAS0232, in the bacteria (Escherichia coli, UniProt P00803 1-324). Put plainly: cell-based or functional assay.
Assay [3] deals with T2, S. aureus NCTC 8325 SPase (SpsB), wild type, in the bacteria (Staphylococcus aureus). Put plainly: cell-based or functional assay.
The target in assay [4] is T3, Staphylococcus epidermidis RP62A signal peptidase IB, wild type (Staphylococcus epidermidis).
T3 chain: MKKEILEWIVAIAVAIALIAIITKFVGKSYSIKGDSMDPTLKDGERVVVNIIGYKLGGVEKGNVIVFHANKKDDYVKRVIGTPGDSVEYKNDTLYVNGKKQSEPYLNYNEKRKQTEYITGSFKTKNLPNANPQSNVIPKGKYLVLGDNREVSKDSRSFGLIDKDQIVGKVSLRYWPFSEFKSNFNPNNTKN
Put plainly: cell-based or functional assay.

Assay [5] deals with T4, Staphylococcus epidermidis signal peptidase IB S31P (strain PAS9002) (Staphylococcus epidermidis).
T4 chain: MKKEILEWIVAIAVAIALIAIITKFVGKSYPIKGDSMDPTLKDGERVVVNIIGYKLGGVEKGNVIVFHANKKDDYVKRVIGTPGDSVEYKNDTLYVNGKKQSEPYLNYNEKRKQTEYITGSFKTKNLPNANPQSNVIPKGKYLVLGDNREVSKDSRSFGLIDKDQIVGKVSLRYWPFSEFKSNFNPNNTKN
Put plainly: cell-based or functional assay.

The target in assay [6] is T5, P. aeruginosa SPase (LepB) P84S, strain PAS2006, in the bacteria (Pseudomonas aeruginosa, UniProt Q9I5G7 1-284).
T5 sequence: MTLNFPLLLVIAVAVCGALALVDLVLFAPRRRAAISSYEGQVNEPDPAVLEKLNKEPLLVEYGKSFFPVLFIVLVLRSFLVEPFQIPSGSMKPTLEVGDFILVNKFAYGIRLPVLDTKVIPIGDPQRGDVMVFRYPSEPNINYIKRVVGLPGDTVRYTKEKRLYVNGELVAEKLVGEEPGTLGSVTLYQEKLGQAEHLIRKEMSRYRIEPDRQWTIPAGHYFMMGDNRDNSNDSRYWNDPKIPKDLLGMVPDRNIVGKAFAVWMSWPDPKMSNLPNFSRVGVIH
Put plainly: cell-based or functional assay.

Assay [7] addresses T6, P. aeruginosa PAO1 SPase (LepB), wild type, in the bacteria (Pseudomonas aeruginosa, UniProt Q9I5G7 1-284).
T6 sequence: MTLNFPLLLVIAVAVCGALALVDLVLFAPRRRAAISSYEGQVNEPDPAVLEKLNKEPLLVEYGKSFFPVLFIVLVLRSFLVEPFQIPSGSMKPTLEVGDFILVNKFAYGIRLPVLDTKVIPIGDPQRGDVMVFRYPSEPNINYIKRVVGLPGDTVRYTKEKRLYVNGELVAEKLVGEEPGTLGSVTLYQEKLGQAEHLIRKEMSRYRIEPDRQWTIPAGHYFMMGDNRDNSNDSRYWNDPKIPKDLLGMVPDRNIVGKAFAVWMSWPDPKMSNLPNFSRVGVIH
Briefly: cell-based or functional assay.

Assay [8] deals with T7, S. aureus SPase (SpsB) P29S, strain PAS8001, in the bacteria (Staphylococcus aureus). Briefly: cell-based or functional assay.
The target in assay [9] is T8, Staphylococcus epidermidis signal peptidase IB S29P (strain PAS9001) (Staphylococcus epidermidis).
T8 chain: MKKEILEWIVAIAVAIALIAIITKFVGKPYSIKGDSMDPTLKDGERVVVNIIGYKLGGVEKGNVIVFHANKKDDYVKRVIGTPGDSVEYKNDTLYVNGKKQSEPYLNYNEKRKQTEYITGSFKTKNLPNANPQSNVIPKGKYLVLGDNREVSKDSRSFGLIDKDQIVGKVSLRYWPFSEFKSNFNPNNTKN
Briefly: cell-based or functional assay.

The target of assay [10] is T9, P84S variant of detergent-solubilized full-length E. coli SPase (His6x-tagged) (Escherichia coli, UniProt P00803 1-324). Briefly: steady-state binding by increase of arylomycin fluorescence; detergent-solubilized full-length His-tagged SPase.
Assay [11] concerns the target T10, detergent-solubilized full-length wild type E. coli SPase (His6x-tagged) (Escherichia coli, UniProt P00803 1-324).
T10 construct: Plasmid pET23-lepB came from Dr. Mark Paetzel; also called full-length Pro-variant of E. coli SPase; full length His-tagged E. coli SPase; not shown: His6x tag of plasmid pET23-lepB
The assay is described as above.

Assay [12] deals with T4, Staphylococcus epidermidis signal …. Briefly: cell-based or functional assay.
For assay [13], the target named is T8, Staphylococcus epidermidis signal …. Briefly: cell-based or functional assay.
For assay [14], the target named is T9, P84S variant of detergent-solubilized …. Put plainly: steady-state increase of arylomycin fluorescence (ex 320 nm, em 410 nm) on binding detergent-solubilised full-length E. coli SPase P84S.
The target of assay [15] is T1, E. coli MG1655 SPase (LepB), wild type, …. Briefly: cell-based or functional assay. The source holds these as a separate data set.
Assay [16] deals with E. coli MG1655 SPase (LepB) P84L, in the bacteria (E. coli, UniProt P00803 1-324). Briefly: cell-based or functional assay.
Assay [17] addresses T2, S. aureus NCTC 8325 SPase (SpsB), wild …. Put plainly: cell-based or functional assay. The source holds these as a separate data set.
For assay [18], the target named is T3, Staphylococcus epidermidis RP62A signal …. Put plainly: cell-based or functional assay.
Assay [19] deals with T6, P. aeruginosa PAO1 SPase (LepB), wild …. Briefly: cell-based or functional assay. The source holds these as a separate data set.
Assay [20] concerns the target T7, S. aureus SPase (SpsB) P29S, strain …. Briefly: cell-based or functional assay. The source holds these as a separate data set.
In assay [21] the target is T8, Staphylococcus epidermidis signal …. Briefly: cell-based or functional assay.
Assay [22] concerns the target T10, detergent-solubilized full-length wild …. Put plainly: steady-state increase of arylomycin fluorescence (ex 320 nm, em 410 nm) on binding detergent-solubilised full-length wild type E. coli SPase.

B1: arylomycin C16 (peptide)
peptide: SAGXAY
modifications: C16 fatty acyl (palmitoyl) tail on the N-terminus of N-methyl-D-Ser2; D-Ala3; N-methyl-4-hydroxyphenylglycine (MeHpg) at 5, written X; biaryl bridge between MeHpg5 and Tyr7 (macrocycle MeHpg5-Ala6-Tyr7); free C-terminal carboxyl; the filing counts the lipid tail as position 1
notes: Synthetic lipohexapeptide derived from the natural product arylomycin A2, with a straight C16 fatty acid tail; It has non-standard and D-residues and is macrocyclic, so it is a borderline case of 'peptide'; also called arylomycin A-C16; Arylomycin A2 C16
Usually Kd stands for the concentration at which binding is half-saturated. Read a low Kd as a tighter complex. A word on the EC50 (read off the curve): it is the concentration at which the effect is half-maximal. High values mean lower potency in that assay, low ones higher potency in that assay. With B1, the “MIC” value in assay [1] is > 128 µg/mL; in assay [2], 2 µg/mL; in assay [3], > 128 µg/mL; in assay [4], 0.25 µg/mL; in [5] it was > 128 µg/mL; in assay [6], 8 µg/mL. Also, the “MIC” value in [7] is > 128 µg/mL; in assay [8], 2 µg/mL; in assay [9], 8 µg/mL; in assay [15], > 64 µg/mL; in assay [16], 0.5 µg/mL; in [17], > 64 µg/mL. Also, the MIC in [18] is 0.5 µg/mL; in assay [19], > 64 µg/mL; in [20] it was 2 µg/mL; in assay [21], 8 µg/mL. Moreover, the Kd amounted to 5.7 nM in [10], 60 nM in assay [11] and 5.73 nM in assay [14]. Moreover, the entries for the “fold elevation of MIC compared to the wild type strain” value in [12] and in assay [13] were > 256 fold and 32 fold, respectively. Further, the “EC50 (read off the curve)” value was ~10 nM in [14] and ~100 nM in assay [22].
